These are literature values, as cited in PMC7463749.

What is called Ki is a dissociation constant, usually derived from enzyme kinetics or from competition with a known ligand.

One series deals with BB2R (Homo sapiens) (UniProt P30550).
For the next series, the target named is BB1R (Homo sapiens) (UniProt P28336).
Chain of UniProt P28336 (P28336 whole entry): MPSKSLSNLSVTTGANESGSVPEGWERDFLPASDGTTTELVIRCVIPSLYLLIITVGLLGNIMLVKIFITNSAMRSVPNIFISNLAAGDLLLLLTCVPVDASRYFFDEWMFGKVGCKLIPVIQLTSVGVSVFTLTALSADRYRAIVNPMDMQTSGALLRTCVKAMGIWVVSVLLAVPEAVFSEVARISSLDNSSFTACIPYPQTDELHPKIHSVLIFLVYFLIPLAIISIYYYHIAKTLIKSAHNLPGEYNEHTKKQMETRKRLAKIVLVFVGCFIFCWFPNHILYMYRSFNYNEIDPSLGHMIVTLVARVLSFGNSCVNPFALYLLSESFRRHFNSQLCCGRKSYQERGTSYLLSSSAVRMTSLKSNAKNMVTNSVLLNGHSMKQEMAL

Chain of UniProt P30550 (P30550 whole entry): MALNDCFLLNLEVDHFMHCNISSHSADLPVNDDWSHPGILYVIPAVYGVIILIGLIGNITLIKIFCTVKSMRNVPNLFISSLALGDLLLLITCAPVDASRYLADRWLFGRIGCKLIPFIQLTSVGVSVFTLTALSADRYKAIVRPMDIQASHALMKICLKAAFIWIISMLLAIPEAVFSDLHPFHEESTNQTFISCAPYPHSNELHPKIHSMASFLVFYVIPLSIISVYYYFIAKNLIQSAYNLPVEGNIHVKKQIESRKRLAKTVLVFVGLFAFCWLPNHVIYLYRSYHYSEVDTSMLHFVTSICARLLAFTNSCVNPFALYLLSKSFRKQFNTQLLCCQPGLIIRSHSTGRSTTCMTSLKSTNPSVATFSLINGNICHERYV

For “gastrin-releasing peptide (from UniProt P07492)”, the Ki in the series with BB2R (Homo sapiens) is 190 pM.

Consider neuromedin B (from UniProt P08949), for which the Ki with BB1R (Homo sapiens) is 52 pM.
